Assay results from patent publication US20110263454A1, “Methods of Identifying Functional Characteristics of Promoters, Transcription Modifying Proteins and Transcription Modulating Agents” (Salk Institute for Biological Studies, priority 2008, published 2011).

B1: RXRg: Retinoic X Receptor γ (NR2B3), cDNA driver (protein, UniProt P48443 1-463, looked up)
Retinoic acid receptor …: MYGNYSHFMKFPAGYGGSPGHTGSTSMSPSAALSTGKPMDSHPSYTDTPVSAPRTLSAVGTPLNALGSPYRVITSAMGPPSGALAAPPGINLVAPPSSQLNVVNSVSSSEDIKPLPGLPGIGNMNYPSTSPGSLVKHICAICGDRSSGKHYGVYSCEGCKGFFKRTIRKDLIYTCRDNKDCLIDKRQRNRCQYCRYQKCLVMGMKREAVQEERQRSRERAESEAECATSGHEDMPVERILEAELAVEPKTESYGDMNMENSTNDPVTNICHAADKQLFTLVEWAKRIPHFSDLTLEDQVILLRAGWNELLIASFSHRSVSVQDGILLATGLHVHRSSAHSAGVGSIFDRVLTELVSKMKDMQMDKSELGCLRAIVLFNPDAKGLSNPSEVETLREKVYATLEAYTKQKYPEQPGRFAKLLLRLPALRSIGLKCLEHLFFFKLIGDTPIDTFLMEMLETPLQIT
B2: TR2: Testicular Orphan Nuclear Receptor 2 (NR2C1), cDNA driver (protein, UniProt P13056 1-603, looked up)
Nuclear receptor subfamily 2 …: MATIEEIAHQIIEQQMGEIVTEQQTGQKIQIVTALDHNTQGKQFILTNHDGSTPSKVILARQDSTPGKVFLTTPDAAGVNQLFFTTPDLSAQHLQLLTDNSPDQGPNKVFDLCVVCGDKASGRHYGAVTCEGCKGFFKRSIRKNLVYSCRGSKDCIINKHHRNRCQYCRLQRCIAFGMKQDSVQCERKPIEVSREKSSNCAASTEKIYIRKDLRSPLTATPTFVTDSESTRSTGLLDSGMFMNIHPSGVKTESAVLMTSDKAESCQGDLSTLANVVTSLANLGKTKDLSQNSNEMSMIESLSNDDTSLCEFQEMQTNGDVSRAFDTLAKALNPGESTACQSSVAGMEGSVHLITGDSSINYTEKEGPLLSDSHVAFRLTMPSPMPEYLNVHYIGESASRLLFLSMHWALSIPSFQALGQENSISLVKAYWNELFTLGLAQCWQVMNVATILATFVNCLHNSLQQDKMSTERRKLLMEHIFKLQEFCNSMVKLCIDGYEYAYLKAIVLFSPDHPSLENMEQIEKFQEKAYVEFQDYITKTYPDDTYRLSRLLLRLPALRLMNATITEELFFKGLIGNIRIDSVIPHILKMEPADYNSQIIGHSI
B3: HNF4g: Hepatocyte Nuclear Factor γ (NR2A2), cDNA driver (protein, UniProt Q14541 1-408, looked up)
Hepatocyte nuclear factor …: MNTTDNGVNCLCAICGDRATGKHYGASSCDGCKGFFRRSIRKSHVYSCRFSRQCVVDKDKRNQCRYCRLRKCFRAGMKKEAVQNERDRISTRRSTFDGSNIPSINTLAQAEVRSRQISVSSPGSSTDINVKKIASIGDVCESMKQQLLVLVEWAKYIPAFCELPLDDQVALLRAHAGEHLLLGATKRSMMYKDILLLGNNYVIHRNSCEVEISRVANRVLDELVRPFQEIQIDDNEYACLKAIVFFDPDAKGLSDPVKIKNMRFQVQIGLEDYINDRQYDSRGRFGELLLLLPTLQSITWQMIEQIQFVKLFGMVKIDNLLQEMLLGGASNDGSHLHHPMHPHLSQDPLTGQTILLGPMSTLVHADQISTPETPLPSPPQGSGQEQYKIAANQASVISHQHLSKQKQL
B4: RORb: RAR-related Orphan Receptor β (NR1F2), cDNA driver (protein, UniProt Q92753 1-470, looked up)
Nuclear receptor ROR-beta: MCENQLKTKADATAQIEVIPCKICGDKSSGIHYGVITCEGCKGFFRRSQQNNASYSCPRQRNCLIDRTNRNRCQHCRLQKCLALGMSRDAVKFGRMSKKQRDSLYAEVQKHQQRLQEQRQQQSGEAEALARVYSSSISNGLSNLNNETSGTYANGHVIDLPKSEGYYNVDSGQPSPDQSGLDMTGIKQIKQEPIYDLTSVPNLFTYSSFNNGQLAPGITMTEIDRIAQNIIKSHLETCQYTMEELHQLAWQTHTYEEIKAYQSKSREALWQQCAIQITHAIQYVVEFAKRITGFMELCQNDQILLLKSGCLEVVLVRMCRAFNPLNNTVLFEGKYGGMQMFKALGSDDLVNEAFDFAKNLCSLQLTEEEIALFSSAVLISPDRAWLIEPRKVQKLQEKIYFALQHVIQKNHLDDETLAKLIAKIPTITAVCNLHGEKLQVFKQSHPEIVNTLFPPLYKELFNPDCATGCK
B5: TR4: Testicular Orphan Nuclear Receptor 4 (NR2C2), cDNA driver (protein, UniProt P49116 1-596, looked up)
Nuclear receptor subfamily 2 …: MTSPSPRIQIISTDSAVASPQRIQIVTDQQTGQKIQIVTAVDASGSPKQQFILTSPDGAGTGKVILASPETSSAKQLIFTTSDNLVPGRIQIVTDSASVERLLGKTDVQRPQVVEYCVVCGDKASGRHYGAVSCEGCKGFFKRSVRKNLTYSCRSNQDCIINKHHRNRCQFCRLKKCLEMGMKMESVQSERKPFDVQREKPSNCAASTEKIYIRKDLRSPLIATPTFVADKDGARQTGLLDPGMLVNIQQPLIREDGTVLLATDSKAETSQGALGTLANVVTSLANLSESLNNGDTSEIQPEDQSASEITRAFDTLAKALNTTDSSSSPSLADGIDTSGGGSIHVISRDQSTPIIEVEGPLLSDTHVTFKLTMPSPMPEYLNVHYICESASRLLFLSMHWARSIPAFQALGQDCNTSLVRACWNELFTLGLAQCAQVMSLSTILAAIVNHLQNSIQEDKLSGDRIKQVMEHIWKLQEFCNSMAKLDIDGYEYAYLKAIVLFSPDHPGLTSTSQIEKFQEKAQMELQDYVQKTYSEDTYRLARILVRLPALRLMSSNITEELFFTGLIGNVSIDSIIPYILKMETAEYNGQITGASL

Test system: hG6PD promoter
Test: NHR-promoter luciferase screen, hG6PD promoter
Assay type: cell-based, human
Details: G6PD promoter reporter; co-transfected HR, without or with its ligand
How it was run: (§1)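 CV-1 cells were co-transfected with 50 ng NHR (homodimer or NHR/RXR heterodimer), 100 ng promoter-luciferase construct and 50 ng LacZ. Luciferase was normalized to LacZ and to a no-NHR/no-ligand control.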

Molecule	Luc. act., normalized to lacZ
B1	43.7
B2	45.5
B3	42.1
B4	51.1
B5	66.2

Same assay, conditions: G6PD promoter reporter; co-transfected HR, without or with its ligand; relative to control

Molecule	Normalized Luc. act., normalized to control
B1	1.2
B2	1.2
B3	1.1
B4	1.4
B5	1.8

Same assay, conditions: hG6PD promoter-luciferase, CV-1 cells, NHR +/- ligand, control = 1.00

Molecule	luciferase activity normalized to lacZ activity and to a control, hG6PD
B1	1.17
B2	1.22
B3	1.13
B4	1.37
B5	1.77

Test system: mCAR promoter
Test: NHR-promoter luciferase screen, mCAR promoter
Assay type: cell-based, mouse
Details: mCAR promoter-luciferase, CV-1 cells, NHR +/- ligand, control = 1.00
How it was run: as §1

Molecule	luciferase activity normalized to lacZ activity and to a control, mCAR
B1	1.25
B2	0.81
B3	1.43
B4	1.15
B5	2.52

Same assay, conditions: mCAR promoter; HR/ligand component

Molecule	Luc. act., normalized to lacZ	Normalized Luc. act., normalized to control
B1	47.5	1.2
B2	31.0	0.8
B3	54.5	1.4
B4	43.7	1.1
B5	96.2	2.5

Test system: RevErba promoter
Test: NHR-promoter luciferase screen, RevErba (RVRa) promoter
Assay type: cell-based
Parameters: key to mRevErba promoter reporter activity / Normalized Luc. act., normalized to control: luciferase activity normalized to lacZ and to control (no NHR/ligand)
Details: RVRa promoter; HR component without or with ligand
How it was run: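 CV-1 cells co-transfected with NHR (pcDNA3.1, C-terminal V5H6 tag) as homodimer or RXR heterodimer, RevErbα promoter–luciferase reporter and LacZ transfection control; ligand added where applicable. Luciferase normalized to LacZ and to no-NHR/no-ligand control.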

Molecule	Luc. act., normalized to lacZ	Normalized Luc. act., normalized to control
B1	24.64	0.9
B2	52.3	1.9
B3	28.15	1.0
B4	29.93	1.1
B5	26.5	0.9

Same assay, conditions: RVRa promoter; given only where activity is below control

Molecule	negative reciprocal of normalized Luc. act. (fold repression; Table 33)
B1	−1.135
B5	−1.054

Same assay, conditions: RVRa promoter; log10 of activity normalized to control

Molecule	normalized Luc. act. on a logarithmic scale (column without head, Table 33)
B1	−0.05
B2	0.27
B3	0.00
B4	0.03
B5	−0.02

Same assay, conditions: transcription factor +/- ligand; control = 1.00

Molecule	mRevErba promoter reporter activity
B1	0.88
B2	1.87
B3	1.01
B4	1.07
B5	0.95

Test system: Bmal1 promoter
Test: NHR-promoter luciferase screen, Bmal1 promoter
Assay type: cell-based, mouse
Details: Bmal1 promoter; HR component without or with ligand
How it was run: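 CV-1 cells co-transfected with 50 ng NHR (V5H6-tagged, pcDNA3.1; homodimer or RXR heterodimer), 100 ng Bmal1 promoter-luciferase and 50 ng LacZ. Luciferase was normalized to LacZ and to a no-NHR/ligand control.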

Molecule	Luc. act., normalized to lacZ	Normalized Luc. act., normalized to control
B1	12.7	0.8
B2	10.8	0.7
B3	11.5	0.7
B4	16.5	1.1
B5	22.5	1.4

Same assay, conditions: transcription factor +/- ligand; control = 1.00

Molecule	mBmal1 promoter reporter activity
B1	0.81
B2	0.69
B3	0.73
B4	1.06
B5	1.44

Test system: mABCA1 promoter
Test: NHR-promoter luciferase screen, mABCA1 promoter
Assay type: cell-based, mouse
Details: ABCA1 promoter; hormone receptor with or without its ligand
How it was run: as §1

Molecule	Luc. act., normalized to lacZ
B1	18.3
B2	31.2
B3	11.3
B4	26.4
B5	36.4

Same assay, conditions: ABCA1 promoter; hormone receptor with or without its ligand; relative to control

Molecule	Normalized Luc. act., normalized to control
B1	3.3
B2	5.6
B3	2.0
B4	4.7
B5	6.5

Same assay, conditions: transcription factor +/- ligand; control = 1.00

Molecule	mABCA1 promoter reporter activity
B1	3.26
B2	5.55
B3	2.01
B4	4.69
B5	6.49
